Tested on: MS2 coat protein
Assay: apparent KD of MS2 coat protein; designed switch direction (-1 OFF switch, 1 ON switch): 1; higher = weaker reporter binding
How it was run: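 The apparent KD reported per design is the median over clusters of curve fits to normalised cluster fluorescence. The RNA switches were transcribed on Illumina chips by stalled E. coli RNA polymerase. SNAP-549-labelled MS2 coat protein was titrated from 0.7 or 1.5 nM, doubling up to 3 µM, in Tris-HCl pH 7.5 buffer containing KCl, MgCl2, BSA, DTT, tRNA and Tween-20, with no input, 200 uM small-molecule ligand, or an oligonucleotide input.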

[1] = input ligand: microRNA oligo, concentration not stated
[2] = Eterna round: R95, input ligand: FMN 200 uM
[3] = Eterna round: R95, input ligand: microRNA oligo, concentration not stated
[4] = Eterna round: R95, input ligand: none

Sequence | apparent KD of MS2 coat protein [1] [nM] | apparent KD of MS2 coat protein [2] [nM] | apparent KD of MS2 coat protein [3] [nM] | apparent KD of MS2 coat protein [4] [nM] | apparent KD of MS2 coat protein (input ligand: FMN 200 uM) [nM] | apparent KD of MS2 coat protein (input ligand: none) [nM]
AAGGUCAAGAUAGGAUAUGUUUCAUGAUAGAUAACAGAAGGAUCUAGAACAUGAGGAUCACCCAUGUGGCACAUAGAGUGGUGA [Default title] (Eterna round: R96, puzzle: Same State NG 1) | 284 | – | – | – | – | –
AAGUAGGAGUUACAGGAUAUAUGGAGAAGGACAUGAGGAUCACCCAUGUGAGAGAUGAGAGGAAGAUAGAAGGGUAAGGGAGUAA [JR_SS2_Sub026] (puzzle: Same State 2) | – | 44 | 41.4 | 77.2 | – | –
AAGUAGUGGUCAGGAUAUCAAAUCAUUGCAUCACGAUACAUGAGGAUCACCCAUGUCCCAAAAUAUGAGAAGGGACUCACACGG [Eternabot solution 45] (Eterna round: R96, puzzle: Same State NG 2) | 90.1 | – | – | – | 279 | 186
AAGUUACUAUCUCAGGAUAUCAUGUCAAAGACAUGAGGAUCACCCAUGUACCAGGAAACUGGUUAUGAGAAGGGAGAUAGUAACA [Mat - Same State 2 - Mod - D50] (puzzle: Same State 2) | – | 143 | 134 | 1400 | – | –
AAUAAACAUGAGGAUCACCCAUGUGCAACGCGUCAAGGAUAUGCAUCAAACACGCCUUGAGCAGAAGGUGACCGGA [Ladiis] (puzzle: Same State 1) | – | 245 | 41.7 | 16.7 | – | –
AAUCAACAUGAGGAUCACCCAUGUCACACAAAGUGAGGAUAUUGGAAAUAAAUAAUAAAACGAGAAGGCGCUGCGG [OBB] (puzzle: Same State 1) | – | 26.6 | 44.5 | 60 | – | –
AAUCCUGUCACAGGAUAUCCGAGGGCAACCCUCGGAGAAGGGUGAUAGUCUAACAAACACACACAUGAGGAUCACCCAUGUUAA [Sogece] (Eterna round: R96, puzzle: Same State NG 1) | 113 | – | – | – | 76.9 | 133
AAUCCUGUCACAGGAUAUCCGAGGUCAACCCUCGGAGAAGGGUGAUAGUCUAACAAACACACACAUGAGGAUCACCCAUGUUAA [Bigeceaor] (Eterna round: R96, puzzle: Same State NG 1) | 61.6 | – | – | – | 43.1 | 79.2
AAUCGUUUGAUAGGAUAUCGCUAUACAUGAGGAUCACCCAUGUUUACCACGCUGGUUUUUCAUACCGAGAAGGAUUCUGAUGAA [salish99_SSNG02_r04_003] (Eterna round: R96, puzzle: Same State NG 2) | 27.1 | – | – | – | 31.5 | 33.4
AAUCGUUUGAUAGGAUAUCGCUAUACAUGAGGAUCACCCAUGUUUACCACGCUGGUUUUUCAUACCGAGAAGGAUUCUGAUGAG [salish99_SSNG02_r04_001] (Eterna round: R96, puzzle: Same State NG 2) | 45.7 | – | – | – | 72.1 | 53.4
AAUCGUUUGAUAGGAUAUCGCUAUACAUGAGGAUCACCCAUGUUUACCACGCUGGUUUUUCAUACCGAGAAGGAUUCUGAUGAU [JL JR sub007 mod 10] (Eterna round: R96, puzzle: Same State NG 2) | 31.2 | – | – | – | 36 | 35.2
AAUUAAGAUCAAGGAUAUCACGUCGAAUAGACGUGAGAAGGUGAUCCAUACAUGAGGAUCACCCAUGUAUAACAUGAAUUAAUU [SSNG1/8-B1] (Eterna round: R96, puzzle: Same State NG 1) | 607 | – | – | – | – | –
AAUUAAGAUUAAGGAUAUCACGUCGAAUAGACGUGAGAAGGUGAUCAUAACAUGAGGAUCACCCAUGUAUUACAUGAAUUAAUU [SSNG1/3-B1] (Eterna round: R96, puzzle: Same State NG 1) | 218 | – | – | – | 873 | 498

— the supplement of paper PMC9170038
